Test [1] has as its target T1, P6-Hpu.
T1 construct: Synthetic peptide
The test is described as follows: ELISA, unpurified hybridoma supernatant on peptide.

Test [2] deals with P6. Briefly: ELISA, unpurified hybridoma supernatant on peptide. A general note: An ELISA detects its analyte on a solid surface through an enzyme-linked reagent.
Test [3] deals with T2, Flag-tagged human wild-type eIF5A (human, UniProt P63241 1-154).
T2 construct: also called transfected wild-type eIF5A; WT eIF5A
The test is described as follows: Western blot of lysates of 293 cells transfected with DHS-DOHH and flag-eIF5A WT or K50A. On the technique in general: A western blot detects proteins with antibodies after separation by electrophoresis.

The target in test [4] is T3, Flag-tagged human K50A eIF5A (human, UniProt P63241 1-154).
T3 construct: also called K50A variant; K50A mutant eIF5A
T3 sequence (P63241 whole entry K50A): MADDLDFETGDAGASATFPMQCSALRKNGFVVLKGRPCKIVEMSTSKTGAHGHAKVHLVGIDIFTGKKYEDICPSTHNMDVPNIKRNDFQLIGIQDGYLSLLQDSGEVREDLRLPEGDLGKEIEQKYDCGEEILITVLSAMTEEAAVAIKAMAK
The description is as above.

Test [5] deals with T4, endogenous eIF5A (human, UniProt P63241 2-154).
T4 construct: also called endogenous eIF5A protein of 293T cells
T4 sequence (P63241 2-154 limits assumed): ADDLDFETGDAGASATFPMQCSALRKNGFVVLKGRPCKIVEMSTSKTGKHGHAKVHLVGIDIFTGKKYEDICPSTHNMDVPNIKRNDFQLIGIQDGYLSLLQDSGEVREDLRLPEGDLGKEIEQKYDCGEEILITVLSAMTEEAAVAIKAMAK
The description is as above.

Test [6] addresses T1, P6-Hpu. Briefly: SPR, ratio of KD values. A general note: Surface plasmon resonance follows binding to a sensor surface in real time, without labels.
Test [7] deals with T1, P6-Hpu. Briefly: SPR, Biacore T200, peptide captured, Fab flowed.
Test [8] concerns the target T4, endogenous eIF5A. Briefly: immunoprecipitation from 293T cell lysate (diluted 1, 2, 4, 8-fold) with antibody on protein A beads, SDS-PAGE, Coomassie blue.

T2 sequence (P63241 whole entry): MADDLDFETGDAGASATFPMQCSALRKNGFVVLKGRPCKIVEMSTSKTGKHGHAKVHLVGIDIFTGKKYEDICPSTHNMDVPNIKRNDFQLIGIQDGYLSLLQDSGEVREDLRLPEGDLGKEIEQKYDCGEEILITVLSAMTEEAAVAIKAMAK

B1: mAbHpu91 (antibody, V domains shown)
VH: QSVEESGGRLVTPGTPLTLTCTVSAFSLSTYTINWVRQAPGKGLEWIGDIWSDGNTYYANWAKGRFTISKTSTTVDLKITSPTTEDTATYFCARDSWDTSIYYGLDLWGQGTLVTVSS
VL: AIKMTQTPSSVSAAVGGTVTINCQASEDIKRYLAWYQQKPGQPPKLLIYAASKLASGVSSRFTGSGSGTEYTLTISGVQCDDAATYYCQQGYTSTNVNNAFGGGTEVVVK
notes: also called antibody Hpu91
On to B1, for which the binding result is given as “binds” in test [1]; “no binding” in test [2]; “binds” in test [3]; “no binding” in test [4]; “binds” in test [5].

B2: FabHpu98.61 (Fab, V domains shown)
VH: QSVEESGGRLVTPGTPLTLTCTVSACSLYHCTMNWVRQAPGKGLEWIGDIYTDGNTYYANWAKGRFTISKTSTTVDLKITSPTTEDTATYFCARDSWDASSYYGLDLWGQGTLVTVSS
VL: AIKMTQTPSSVSAAVGGTVTINCQASEDIKRYLAWYQQKPGQPPKLLIYAASKLASGVSSRFKGSGSGTEYTLTISGVQCDDAATYYCQQGYTSSNVNNAFGGGTEVVVKG
The term Kd denotes the equilibrium constant for the complex coming apart. Lower therefore signals tighter binding. As to B2, the “Fold improvement in KD over parent FabHpu98” value in test [6] is over 4.4 fold. Further, binding in test [7] was put at a Kd of 229 nM.

B3: mAbHpu24 (antibody, V domains shown)
VH: QEQLKESGGRLVAPGTPLTLTCTVSGFDISDYAMIWVRQAPGKGLEWIGIIYGGSNKLAYAKWAKGRFTISRTSTTVDLKITSPTTEDTATYFCARGYGSMDGYDRLNLWGQGTLVTVSS
VL: AAVLTQTPSPVSAAVGGTVTISCQSSETVYRGDWLSWFQKKPGQPPKLLIYDASYLASGVSSRFSGSGSGTHFTLTISGVQCDDAATYYCLGGYYDDADDTFGGGTEVVVK
notes: also called antibody Hpu24
B3: the binding result in test [2] is “no binding”.

B4: FabHpu24 (Fab, V domains shown)
VH: QEQLKESGGRLVAPGTPLTLTCTVSGFDISDYAMIWVRQAPGKGLEWIGIIYGGSNKLAYAKWAKGRFTISRTSTTVDLKITSPTTEDTATYFCARGYGSMDGYDRLNLWGQGTLVTVSS
VL: AAVLTQTPSPVSAAVGGTVTISCQSSETVYRGDWLSWFQKKPGQPPKLLIYDASYLASGVSSRFSGSGSGTHFTLTISGVQCDDAATYYCLGGYYDDADDTFGGGTEVVVKG
With B4, the Kd in test [7] amounted to 176 nM. In other words, the sub-micromolar range.

B5: mAbHpu24.B (antibody, V domains shown)
VH: QEQLKESGGRLVAPGTPLTLTCTVSGFDISDYAMIWVRQAPGKGLEWIGIIYGVINDLAYAKWAKGRFTISRTSTTVDLKITSPTTEDTATYFCARGYGSMDGYDRLNLWGQGTLVTVSS
VL: AAVLTQTPSPVSAAVGGTVTISCRSRQRVYLGDWLSWFQKKPGQPPKLLIYDASFRGDGVSSRFSGSGSGTHFTLTISGVQCDDAATYYCLGGYYDDADDTFGGGTEVVVK
notes: also called antibody Hpu24.B
As to B5, in test [8], the binding result is listed as “binds”.

B6: FabHpu24.B (Fab, V domains shown)
VH: QEQLKESGGRLVAPGTPLTLTCTVSGFDISDYAMIWVRQAPGKGLEWIGIIYGVINDLAYAKWAKGRFTISRTSTTVDLKITSPTTEDTATYFCARGYGSMDGYDRLNLWGQGTLVTVSS
VL: AAVLTQTPSPVSAAVGGTVTISCRSRQRVYLGDWLSWFQKKPGQPPKLLIYDASFRGDGVSSRFSGSGSGTHFTLTISGVQCDDAATYYCLGGYYDDADDTFGGGTEVVVKG
B6: the “Fold improvement in KD over parent FabHpu24” value in test [6] amounted to 2.9 fold. The molecule further registered a Kd in test [7] of 61 nM.

The record behind these values is patent US20210072250A1 (Genentech, published 2021).
